Measurements published in the Human Domainome abundance scans (Beltran et al. 2025).
± gives the uncertainty stated by the source.

B1: Gamma-crystallin D, residues 90 to 170; numbered along this chain, P07320 (parent)
chain: IRLYEREDYRGQMIEFTEDCSCLQDRFRFNEIHSLNVLEGSWVLYELSNYRGRQYLLMPGDYRRYQDWGATNARVGSLRRV

Variants of: B1
Assay: abundance fitness (aPCA) (normalised: wild type 0, dead -1); higher = more abundant; growth selection in yeast, the domain comes from the species named
Settings: Homo sapiens

| Variant | abundance fitness |
| --- | --- |
| R28L | -0.043 ± 0.079 |
| V37L | 0.096 ± 0.088 |
| V37F | 0.159 ± 0.2 |
| V37T | 0.091 ± 0.1 |
| V37G | -0.218 ± 0.076 |
| V37D | 0.165 ± 0.34 |
| V37E | -1.11 ± 0.46 |
| V37C | -0.126 ± 0.2 |
| V37I | 0.091 ± 0.19 |
| V37M | -0.338 ± 0.16 |
| V37S | 0.137 ± 0.079 |
| V37K | -0.7 ± 0.39 |
| V37H | -0.086 ± 0.3 |
| V37P | 0.153 ± 0.099 |
| V37W | -0.895 ± 0.15 |
| V37Q | -0.306 ± 0.15 |
| V37A | 0.01 ± 0.076 |
| E39A | 0.074 ± 0.079 |
| F29V | -0.072 ± 0.062 |
| F29P | 0.069 ± 0.099 |
| F29Q | 0.041 ± 0.12 |

| Variant | abundance fitness |
| --- | --- |
| F29H | -0.066 ± 0.12 |
| F29Y | 0.161 ± 0.21 |
| F29L | -0.012 ± 0.077 |
| F29C | 0.036 ± 0.15 |
| F29I | -0.112 ± 0.17 |
| F29D | 0.008 ± 0.18 |
| F29A | 0.008 ± 0.089 |
| F29E | 0.05 ± 0.1 |
| F29N | -0.064 ± 0.16 |
| F29W | 0.031 ± 0.14 |
| F29G | -0.007 ± 0.056 |
| F29R | 0.117 ± 0.11 |
| F29T | -0.135 ± 0.11 |
| F29S | 0.093 ± 0.082 |
| D25E | 0.088 ± 0.13 |
| D25K | 0.103 ± 0.33 |
| D25L | 0.06 ± 0.095 |
| D25T | -0.168 ± 0.31 |
| D25I | -0.052 ± 0.19 |
| D25A | 0.005 ± 0.13 |
| D25W | -0.087 ± 0.1 |

| Variant | abundance fitness |
| --- | --- |
| D25S | -0.127 ± 0.092 |
| D25Y | -0.17 ± 0.12 |
| D25M | -0.149 ± 0.2 |
| D25N | -0.197 ± 0.24 |
| D25P | 0.073 ± 0.15 |
| D25R | -0.045 ± 0.093 |
| D25G | 0.041 ± 0.079 |
| D25F | -0.036 ± 0.14 |
| D25C | -0.308 ± 0.16 |
| D25V | -0.051 ± 0.074 |
| Q24K | 0.068 ± 0.18 |
| Q24G | 0.01 ± 0.055 |
| Q24A | -0.021 ± 0.086 |
| Q24Y | -0.045 ± 0.27 |
| Q24I | -0.038 ± 0.17 |
| Q24N | -0.022 ± 0.067 |
| Q24T | -0.08 ± 0.12 |
| Q24M | 0.167 ± 0.15 |
| Q24C | -0.025 ± 0.15 |
| Q24R | 0.013 ± 0.063 |
| Q24D | -0.051 ± 0.17 |

| Variant | abundance fitness |
| --- | --- |
| Q24H | 0.08 ± 0.18 |
| Q24W | -0.073 ± 0.099 |
| Q24P | 0.02 ± 0.13 |
| Q24V | -0.086 ± 0.062 |
| Q24S | -0.008 ± 0.11 |
| Q24E | 0.029 ± 0.13 |
| L38R | 0.029 ± 0.073 |
| L38M | -0.035 ± 0.097 |
| L38I | 0.007 ± 0.16 |
| L38T | -0.055 ± 0.1 |
| L38W | 0.153 ± 0.097 |
| L38K | -0.141 ± 0.22 |
| L38D | 0.064 ± 0.12 |
| L38V | -0.045 ± 0.083 |
| L38S | -0.065 ± 0.067 |
| L38Q | -0.007 ± 0.17 |
| L38A | -0.066 ± 0.069 |
| L38G | 0.016 ± 0.057 |
| L38H | 0.024 ± 0.15 |
| L38P | 0.012 ± 0.078 |
| L38C | -0.102 ± 0.1 |
